From patent publication US10772909B2, “System and method for insulin-mimetic of cartilage, bone, or osteochondral repair and piezoelectric composite scaffold” (New Jersey Institute of Technology, priority 2016, dated 2020)

Test system: PBMCs
Experiment: PBMC proliferation assay (3H-TdR incorporation)
Type: cell-based, human
Details: positive control, 1% PHA
Excerpt: Peripheral blood was obtained from four healthy subjects, two males and two females (ages 18-30 years old). Peripheral blood mononuclear cells (PBMCs) were isolated by Ficoll Hypaque (Sigma-Aldrich) gradient separation. Human MSCs were obtained from human bone marrow aspirates (Lonza, Walkersville, Md., USA) from four healthy subjects, two males and two females, ages 18-30 years old, according to previously published protocols and cryopreserved before use. Human MSCs were characterized for the expression of surface markers CD29, CD44, CD73, CD90, and CD105 and lack expression of CD14, CD34 and CD45 as determined by flow cytometry. The differentiation potency was determined by the differentiation of MSCs into osteoblasts, adipocytes and chondrocytes in vitro [32,33]. […]
The cytotoxicity of Na2WO4 was examined using PBMCs. Cell proliferation was measured using tritiated thymidine (^3H-TdR) incorporation as described in Kapoor et al.. […]
After 16 h, the cells were harvested on glass fiber filters (Cambridge Technology, Inc.) using a cell harvester (EMD Millipore). […] The radioactive incorporation of ^3H-TdR in the cells was measured using a liquid scintillation counter (Beckman; Fullerton, Calif., USA). The stimulation index (SI) was calculated as disintegration per minute (dpm) of treated group/dpm of unstimulated PBMCs (0 mM).

## phytohemagglutinin [PHA]
  stimulation index (SI): 11.5±1.2
